Experimental findings from PMC3855604 are described below.

pKd: −log10 of the molar value. Like-named read-outs stand apart in the source and are kept apart here.

As usually defined, the kon is the rate constant with which the complex forms. A low value points to slow association. One may read the KM as the concentration of substrate that gives half-maximal velocity. The koff is a measure of how fast the partners let go of each other. By pKd is commonly meant the Kd on a negative log10 scale, so that one unit is a factor of ten.

The target of series [1] is M447C (NBD P1′) PAI-1 (human). Description: stopped-flow fluorimetry.
The test system of series [2] is M447C (NBD P1′) PAI-1. Description: stopped-flow fluorimetry. The conditions noted are these: other: stopped-flow fluorimetry.
Series [3] addresses non-glycosylated Q123K PAI-1 (human) (UniProt P05121).
Series [4] addresses wild type recombinant non-glycosylated PAI-1 (human) (UniProt P05121).
In series [5] the target is wild type glycosylated PAI-1 (human) (UniProt P05121).
The target of series [6] is S119C (NBD S119C) PAI-1 (human) (UniProt P05121). Nature of the series: stopped-flow fluorimetry.
The target is the same in series [7]. Description: stopped-flow fluorimetry. This is another data set of the same source.
The target of series [8] is complex of NBD S119C PAI-1 with S195A tcuPA (UniProt P05121). Nature of the series: stopped-flow fluorimetry.
Series [9] concerns the target non-glycosylated Q123K PAI-1 (human) (UniProt P05121). Nature of the series: competition read by tPA amidolytic activity.
Series [10] deals with wild type glycosylated PAI-1 (human) (UniProt P05121). Description: competition read by tPA amidolytic activity.
For series [11], the target named is non-glycosylated Q123K PAI-1 (human) (UniProt P05121). Description: competition read by tPA amidolytic activity. This is another data set of the same source.
In series [12] the target is complex of wt rPAI-1 with Vn (UniProt P05121).

With “recombinant two chain urokinase (enzyme)”, the association rate constant (kon) in [1] worked out at 2.68e+07 M⁻¹ s⁻¹.
On to recombinant two chain urokinase, for which, in [2], the KM worked out at 10.2 ± 2.2 µM.
Turning to Monomeric vitronectin (natural protein), in [3], the kL2 (spontaneous inactivation of Q123K PAI-1 with Vn), 37°C came to 0.00018 s⁻¹; the kL2 (spontaneous inactivation of Q123K PAI-1 with Vn), 50°C turned out to be 0.0081 s⁻¹; the kL2 (spontaneous inactivation of Q123K PAI-1 with Vn), 55°C is 0.0109 s⁻¹; the kL2 (spontaneous inactivation of Q123K PAI-1 with Vn), 60°C turned out to be 0.0222 s⁻¹. For the same substance, the kL2 (spontaneous inactivation of PAI-1 with Vn), 60°C in series [4] turned out to be 0.011 s⁻¹. In series [5], the kL2 (spontaneous inactivation of PAI-1 with Vn), 37°C stood at 3.6e-05 s⁻¹; the kL2 (spontaneous inactivation of PAI-1 with Vn), 50°C was determined as 0.00043 s⁻¹; the kL2 (spontaneous inactivation of PAI-1 with Vn), 55°C is 0.001 s⁻¹; the kL2 (spontaneous inactivation of PAI-1 with Vn), 60°C was found to be 0.0049 s⁻¹. This substance gave a kon in series [6] of 7.5e+06 M⁻¹ s⁻¹. In [7], this substance came in with a koff of 0.0022 to 0.0072 s⁻¹ and a kon of 7.2e+06 M⁻¹ s⁻¹. In series [8], this substance registered a kon of 1.33e+07 M⁻¹ s⁻¹.
For the substance “S195A two chain urokinase (S356A; S195A in chymotrypsin numbering) (enzyme)”, the pKd in [9] is 8.89. The pKd in [10] is 8.92. The substance also had a pKd in series [11] of 8.89. In series [12], this substance returned a kL4 (spontaneous inactivation of PAI-1 with Vn and S195A tcuPA), 37°C of 3.4e-06 s⁻¹; a kL4 (spontaneous inactivation of PAI-1 with Vn and S195A tcuPA), 50°C of 0.00011 s⁻¹; a kL4 (spontaneous inactivation of PAI-1 with Vn and S195A tcuPA), 55°C of 0.00012 s⁻¹; a kL4 (spontaneous inactivation of PAI-1 with Vn and S195A tcuPA), 60°C of 0.00042 s⁻¹. Further, in series [3], the kL3 (spontaneous inactivation of Q123K PAI-1 with S195A tcuPA), 37°C was 5e-05 s⁻¹; the kL3 (spontaneous inactivation of Q123K PAI-1 with S195A tcuPA), 50°C turned out to be 0.00066 s⁻¹; the kL3 (spontaneous inactivation of Q123K PAI-1 with S195A tcuPA), 60°C is 0.00122 s⁻¹. In series [5], this substance had a kL3 (spontaneous inactivation of PAI-1 with S195A tcuPA), 50°C of 0.00024 s⁻¹ and a kL3 (spontaneous inactivation of PAI-1 with S195A tcuPA), 60°C of 0.0025 s⁻¹. For the same substance, in [1], the pKd was 7.61, the koff came to 0.15 s⁻¹ and the kon amounted to 6.1e+06 M⁻¹ s⁻¹.
